In article PMC2713827, “Characterization of a Lamellocyte Transcriptional Enhancer Located within the misshapen Gene of Drosophila melanogaster”:

Biological target: T1, dFos DNA-binding domain;dJun DNA-binding domain (Drosophila melanogaster;Drosophila …, UniProt P21525;P18289 418-481;212-275, |)
T1 sequence 1: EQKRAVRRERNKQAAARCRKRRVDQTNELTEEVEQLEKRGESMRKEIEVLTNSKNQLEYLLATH
T1 sequence 2: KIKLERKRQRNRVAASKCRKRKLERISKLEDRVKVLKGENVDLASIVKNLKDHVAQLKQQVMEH
Test: EMSA; 10 mM Tris-HCl pH 8.0, 10 mM DTT, 2.5 mM MgCl2, 10% glycerol, poly(dI-dC), BSA, 100 ng dJun and dFos, 1,000 cpm 32P probe; temperature not stated
Conditions: protein: recombinant;recombinant; tags: 6xHis;6xHis; copies: 1;1; label: 32P

B1: hMTII wt AP-1 probe (dsDNA)
DNA 1: GAGCCGCAAGTGACTCAGCGCGGGGCGTGTGCAG
DNA 2: CTGCACACGCCCCGCGCTGAGTCACTTGCGGCTC
B1: binds.
